Measurements published in paper PMC5435683, “Crystal structure of TAZ-TEAD complex reveals a distinct interaction mode from that of YAP-TEAD complex” (Scientific Reports, 2017).
Residue numbers refer to the chain shown, from its start. One block for each binder: values may come before it.

Columns and labels:
[1] = biological target: the molecule itself; assay: crystal structure; mTAZ (25-57) with mTEAD4 (210-427), co-expressed and co-purified; hanging drops, 6% PEG 10000, 0.05 M magnesium acetate, 0.1 M tri-sodium citrate pH 5.2, 20 °C; 2.9 Å; 4 TAZ and 4 TEAD in the asymmetric unit, two binding modes (1:1 and 2:2)
[2] = biological target: the molecule itself; assay: cross-linking + SEC-MALS; specific disulfide cross-linking of TAZ Asn33Cys with 1.5 mM CuCl2 and 5 mM phenanthroline, 1 hour at 25 °C, stopped with 50 mM EDTA; Superdex 75 5/150 GL, 20 mM Tris pH 8, 150 mM sodium chloride
[3] = biological target: T1, mTEAD4 (residues 210-427) Cys360Ser (mouse, UniProt Q62296 210-427, Cys360 replaced with serine); assay: SEC; analytical gel filtration, Superdex 75 10/300 GL; control, cross-linked, and cross-linking reversed with 25 mM DTT for 1 hour at 25 °C; conditions: both partners purified
T1 construct: TEAD4, mouse, residues 210-427, surface-exposed Cys360 replaced with serine; also called TEAD Cys360 to serine; source: E. coli BL21 (DE3), co-expressed with mTAZ (25-57) Asn33Cys, purified as a complex as the wild type
T1 sequence (Q62296 210-427 C360S): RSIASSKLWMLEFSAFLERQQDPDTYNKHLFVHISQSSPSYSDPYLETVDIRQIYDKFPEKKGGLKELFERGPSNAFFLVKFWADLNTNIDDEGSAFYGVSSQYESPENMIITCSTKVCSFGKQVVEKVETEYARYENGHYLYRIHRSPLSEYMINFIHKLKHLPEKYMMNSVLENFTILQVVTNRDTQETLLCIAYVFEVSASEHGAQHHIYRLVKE

B1: mTAZ (residues 25-57) (domain or fragment, mouse, UniProt Q9EPK5 25-57, looked up)
chain: DTDLEALFNSVMNPKPSSWRKKILPESFFKEPD
notes: TAZ (WWTR1), mouse, residues 25-57 (helix α1, 13-residue loop, helix α2); Cloned with mTEAD4 in a modified pETDuet-1 vector; also called mouse TAZ; not shown: His6, N-terminal, cleaved
binding result [1]: binds

stoichiometry N [3]: 1
B2: mTAZ (residues 25-57) Asn33Cys (domain or fragment, mouse, UniProt Q9EPK5 25-57, looked up)
chain: B1 chain with N9C
notes: TAZ (WWTR1), mouse, residues 25-57, Asn33 replaced with cysteine for disulfide cross-linking; In the cross-linked sample Cys33 of two copies is joined by a disulfide (copper phenanthroline); in the control and DTT samples it is not; also called TAZ Asn33Cys; source: E. coli BL21 (DE3), co-expressed with mTEAD4 (210-427) Cys360Ser, purified as a complex as the wild type; not shown: His6, …
stoichiometry N [2]: 2
